# Experimental data taken from patent CN114181311A (dated 2022).
# T1: His-DLL3胞外区蛋白 (Human DLL3 Protein, His Tag, ACRO DL3-H52H4) (human, UniProt Q9NYJ7 27-492)
# T1 construct: extracellular domain; Bought protein; also called DLL3-His; DLL3抗原; not shown: His tag
# T1 sequence (looked up): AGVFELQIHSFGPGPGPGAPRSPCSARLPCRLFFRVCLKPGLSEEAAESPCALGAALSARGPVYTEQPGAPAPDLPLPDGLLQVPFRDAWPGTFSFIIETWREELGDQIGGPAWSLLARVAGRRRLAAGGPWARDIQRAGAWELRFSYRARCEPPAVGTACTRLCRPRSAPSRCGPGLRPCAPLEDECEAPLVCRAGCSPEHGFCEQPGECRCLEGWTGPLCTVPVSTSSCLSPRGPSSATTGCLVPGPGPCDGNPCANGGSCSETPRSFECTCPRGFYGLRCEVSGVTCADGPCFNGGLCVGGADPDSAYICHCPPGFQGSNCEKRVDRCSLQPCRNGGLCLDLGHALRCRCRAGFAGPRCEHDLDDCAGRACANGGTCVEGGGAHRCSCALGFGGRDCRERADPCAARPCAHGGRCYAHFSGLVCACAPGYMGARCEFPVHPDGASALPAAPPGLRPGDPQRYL
# T2: 小细胞肺癌细胞系SHP-77上表达的DLL3抗原 (UniProt Q9NYJ7 27-618)
# T2 construct: whole, on cells; Endogenous DLL3 on SHP-77 cells; also called DLL3 on SHP-77 cells
# T2 sequence (looked up): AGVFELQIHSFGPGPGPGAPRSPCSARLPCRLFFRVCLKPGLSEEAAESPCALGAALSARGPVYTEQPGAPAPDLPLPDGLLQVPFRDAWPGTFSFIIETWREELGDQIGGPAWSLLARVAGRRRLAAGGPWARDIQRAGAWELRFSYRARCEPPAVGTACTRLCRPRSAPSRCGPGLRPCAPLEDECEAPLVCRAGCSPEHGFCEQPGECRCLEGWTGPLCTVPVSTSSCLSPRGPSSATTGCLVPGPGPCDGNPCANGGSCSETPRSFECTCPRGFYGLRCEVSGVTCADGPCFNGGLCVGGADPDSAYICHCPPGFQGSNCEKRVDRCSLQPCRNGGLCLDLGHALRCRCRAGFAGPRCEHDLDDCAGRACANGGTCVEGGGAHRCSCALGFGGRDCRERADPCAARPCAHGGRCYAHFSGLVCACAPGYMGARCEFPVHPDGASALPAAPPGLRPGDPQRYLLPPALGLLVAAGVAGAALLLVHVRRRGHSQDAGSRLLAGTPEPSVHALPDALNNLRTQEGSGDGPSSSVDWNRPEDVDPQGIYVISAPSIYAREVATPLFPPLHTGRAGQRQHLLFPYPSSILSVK
# B1: 抗DLL3 scFv A7 (A7-scFv) (scFv)
# scFv: QVQLVQSGAEVKKPGASVKVSCKASGYTFTSYYMHWVRQAPGQGLEWMGIINPSGGSTSYAKKFQGRVTMTRDTSTSTVYMELNRVTSDDTAVYYCARGGGVTGFDYWGQGTLVTVSSGSASAPTLGGGGSGGGGSGGGGSDIQMTQSPSSLSASLGDRVTITCRASQTVRTYLNWYQQKPGKAPNLLIYGASSLQSGVPSRFSGSGSGTDFTLTINSLQPEDFGTYYCQQSDTPPLTFGGGTKVEIK
# notes: Fully human scFv from a phage library; also called 抗DLL3阳性克隆A7; 抗DLL3可溶性抗体A7
# B2: A7 scFv-hFc (Fc fusion)
# chain: B1 scFv
# notes: Expressed in 293T cells and tested as culture supernatant; also called A7 scFv-hFc重组蛋白; 抗DLL3单链抗体(scFv-hFc); not shown: human IgG1 Fc segment from the mammalian expression vector PUTAM003
# B3: 抗DLL3 scFv G8 (G8-scFv) (scFv)
# scFv: QVQLQQSGPGLVKPSQTLSLTCAISGDSVSSDSVAWSWIRQSPSRGLEWLGRTYYRSKWYYDYAASVKSRISINPDTSKNQFSLQLNSVTPEDTAVYYCAREPLRYGSSWWDAFDIWGQGTMITVSSGSASAPTLGGGGSGGGGSGGGGSQSALTQPPSVSGSPGQAVTISCTGTSSDVGRYNYVSWYQQHPGKVPKLILFDVSSRPSGVSHRFSGSKSGNTASLTISGLQAEDEADYYCTSYRSGSEVFGGGTKLTVL
# notes: Fully human scFv from a phage library; also called 抗DLL3阳性克隆G8; 抗DLL3可溶性抗体G8
# B4: G8 scFv-hFc (Fc fusion)
# chain: B3 scFv
# notes: Expressed in 293T cells and tested as culture supernatant; also called G8 scFv-hFc重组蛋白; not shown: human IgG1 Fc segment from the mammalian expression vector PUTAM003
# Assays:
# BSA(牛血清白蛋白) [1] = target: T3, BSA(牛血清白蛋白) (bovine, UniProt P02769 25-607); experiment: ELISA, periplasmic extract with soluble scFv on coated BSA, anti-c-myc-HRP detection
# T3 sequence (P02769 25-607 limits assumed): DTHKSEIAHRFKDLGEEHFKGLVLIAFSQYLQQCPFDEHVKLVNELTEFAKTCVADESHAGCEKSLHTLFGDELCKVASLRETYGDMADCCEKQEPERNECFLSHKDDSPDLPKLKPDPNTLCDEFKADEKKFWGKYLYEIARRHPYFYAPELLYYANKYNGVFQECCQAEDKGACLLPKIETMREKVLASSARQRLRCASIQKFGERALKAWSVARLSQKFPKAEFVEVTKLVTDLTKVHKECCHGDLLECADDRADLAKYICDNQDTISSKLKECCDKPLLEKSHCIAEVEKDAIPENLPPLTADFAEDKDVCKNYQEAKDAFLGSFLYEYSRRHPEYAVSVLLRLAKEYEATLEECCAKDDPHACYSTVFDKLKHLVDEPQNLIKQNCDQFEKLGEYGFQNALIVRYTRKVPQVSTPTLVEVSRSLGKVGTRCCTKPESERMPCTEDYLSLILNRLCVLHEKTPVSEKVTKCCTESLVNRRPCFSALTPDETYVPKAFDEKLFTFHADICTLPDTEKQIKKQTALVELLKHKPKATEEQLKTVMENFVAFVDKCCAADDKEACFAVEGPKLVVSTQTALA
# [2] = target: T1, His-DLL3胞外区蛋白 (Human DLL3 Protein, His …); experiment: phage ELISA, scFv shown on M13 phage, coated DLL3-His 1 ug/ml, anti-M13-HRP
# BSA(牛血清白蛋白) [3] = target: T3, BSA(牛血清白蛋白); experiment: ELISA, 293T culture supernatant on coated BSA, anti-human IgG-Fc-HRP detection
# [4] = target: T1, His-DLL3胞外区蛋白 (Human DLL3 Protein, His …); experiment: ELISA, 293T culture supernatant, coated DLL3-His 1 ug/ml, anti-human IgG-Fc-HRP
# 小细胞肺癌细胞系SHP-77上表达的DLL3抗原 = target: T2, 小细胞肺癌细胞系SHP-77上表达的DLL3抗原; experiment: flow cytometry on SHP-77 cells, PE anti-human Fc detection
Binder,binding result (BSA(牛血清白蛋白) [1]),binding result [2],binding result (BSA(牛血清白蛋白) [3]),binding result [4],binding result (小细胞肺癌细胞系SHP-77上表达的DLL3抗原)
B1,no binding,binds,–,–,–
B2,–,–,no binding,binds,binds
B3,no binding,binds,–,–,–
B4,–,–,no binding,binds,binds
